Laboratory results as given in patent publication US20230398116A1, “Agent for reversing resistance to anticancer drugs” (Y'S AC CO., LTD., priority 2020, published 2023).

T1: IL-26 (Homo sapiens, UniProt Q9NPH9)
T1 sequence (Q9NPH9 22-171): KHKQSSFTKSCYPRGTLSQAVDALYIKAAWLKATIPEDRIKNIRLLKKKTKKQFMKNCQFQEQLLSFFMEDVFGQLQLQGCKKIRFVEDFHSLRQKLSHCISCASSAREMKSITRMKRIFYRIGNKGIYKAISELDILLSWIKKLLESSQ

T2: EphA3/IL-26 interaction (Homo sapiens, UniProt Q9NPH9)
T2 construct: purchased R&D Systems; host or cells: IL-26 was purchased; EphA3 is endogenous on E0771 cells
T2 sequence (Q9NPH9 22-171): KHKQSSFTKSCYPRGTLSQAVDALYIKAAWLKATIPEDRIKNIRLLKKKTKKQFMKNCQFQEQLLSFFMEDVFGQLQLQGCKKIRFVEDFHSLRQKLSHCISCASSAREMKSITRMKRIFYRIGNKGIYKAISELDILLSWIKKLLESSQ

T3: interaction between IL-26 and EphA3 (Homo sapiens, UniProt Q9NPH9)
T3 construct: purchased R&D Systems; host or cells: IL-26 was purchased; EphA3 is endogenous on HCC70 cells
T3 sequence (Q9NPH9 22-171): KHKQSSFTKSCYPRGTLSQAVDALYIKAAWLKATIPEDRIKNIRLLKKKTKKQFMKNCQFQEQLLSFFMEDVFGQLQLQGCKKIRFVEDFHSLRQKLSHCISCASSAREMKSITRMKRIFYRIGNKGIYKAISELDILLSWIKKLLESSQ


How the values were obtained:
[1] = system: HCC70 cells; test: MTT assay / cell proliferation (confluence) assay, HCC70; assay type: cell-based, human
Procedure: (§1) Human and mouse breast cancer cells (1×10^4) were cultured in 10% FCS containing RPMI1640 medium on a 96-well flat bottom plate (Corning, Tewksbury, MA) at 37° C. for 24 hours, and then stimulated with IL-26 for 48 hours in the presence or absence of EGFR-TKI (gefitinib or erlotinib) at various concentrations, a signal inhibitor, and a neutralizing antibody. HUVECs were seeded in a 96-well flat bottom plate at 5×10^3 cells/well in a 2% FBS-containing EGM medium in which growth factors were reduced by half, and cultured at 37° C. for 12 hours. Thereafter, the medium was aspirated, and a recombinant human IL-26 dimer was adjusted to a final concentration of 10 ng/mL in a 2% FBS-containing EGM medium containing no growth factors, and added to the cells. The stimulation was started in the presence or absence of control human IgG and anti-human IL-26 antibodies, and the cells were cultured for 48 hours. Thereafter, a concentration of 20 μl or 1/10 of a 5 mg/ml MTT solution (Tetrazolium monosodium salt, WST-8) was added to each well, and the plate was allowed to stand for 1 hour. The absorbance at 450 nm/595 nm was measured using Microplate Reader (Bio-Rad, Hercules, CA) and data was analyzed with Microplate Manager 6 software (Bio-Rad).
Human and mouse breast cancer cells (1×10^4) were cultured in RPMI1640 medium containing 10% FCS for 24 hours at 37° C. on a 96-well flat bottom plate (Corning), and then stimulated with IL-26 (30 ng/ml) in the presence or absence of various concentrations of gefitinib and a neutralizing antibody. Cell proliferation was measured as cell confluence using IncuCyte ZOOM (Essen Bioscience, Ann Arbor, MI).

[2] = Heterogeneous chronic GVHD model (NOG mice transplanted with human umbilical cord blood mononuclear cells); assay type: in vivo, mouse
Procedure: On day −1, NOG mice were irradiated with a sublethal dose (100 cGy). On day 0, 5×10^6 human umbilical cord blood mononuclear cells were transplanted from the tail vein of NOG mice. Survival of the mice was assessed daily and body weight was measured twice a week. In an antibody treatment experiment, the control human IgG or anti-human IL-26 monoclonal antibody (the mouse antibody m69-10 and the humanized antibody h69-10A) was administered from day +28 of transplantation when clinical signs/symptoms of mild GVHD began to appear. The antibody solution was adjusted to a concentration of 1 mg/mL with sterile PBS, and 200 μL (200 μg) of the antibody solution per mouse was intraperitoneally injected twice a week. On day +56 after transplantation, the mice were sacrificed, and the skin, lung, liver, and large intestine were collected.
NOG mice were dissected, and then the skin, lung, liver, and large intestine on the back were excised, fixed in 10% formalin solution (Wako) at room temperature, and embedded in paraffin. Thereafter, a section having a thickness of 5 μm was prepared and placed on a glass slide, and stained with hematoxylin and eosin (H&E). In addition, in order to confirm the proliferation of collagen fibers, Azan-Mallory staining was performed. Images of the optical microscope were taken with an Olympus BX41 microscope (OLYMPUS, Tokyo, Japan) connected with an Olympus digital camera DP25, and CellSens software was used.

[3] = biological target: T1, IL-26; test: ELISA of antigen binding to human IL-26; design: purchased R&D Systems 1375-IL/CF; conditions: for EC50 values (binding to human IL-26, ELISA): plates coated with 0.5 μg/ml human IL-26 monomer, calculated using GraphPadPrism
Procedure: The antigen binding of purified Ch69-10-IgG1, Hu69-10A-IgG1, and Hu69-10B-IgG1 was analyzed by ELISA. ELISA plates were coated overnight at 4° C. with the addition of 0.5 μg/ml human IL-26 (recombinant human IL-26/AK155 monomer, Cat #1375-IL/CF, R&D Systems, Minneapolis, MN) at 100 μl/well in 0.2 M sodium carbonate buffer (pH 9.4). Wells were washed with the wash buffer and blocked with the ELISA buffer. Subsequently, 100 μl/well of test antibody (mouse 69-10, Ch69-10-IgG1, Hu69-10A-IgG1, or Hu69-10B-IgG1) serially diluted 2-fold in RPMI medium starting at 5 μg/ml was added to measure a binding with IL-26. After incubation at room temperature for 1 hour and washing the plates with a wash buffer, a 1/2,000-diluted HRP-conjugated goat anti-human kappa chain polyclonal antibody (Bethyl Laboratories) (for Ch69-10-IgG1, Hu69-10A-IgG1 and Hu69-10B-IgG1) or a 1/2,000-diluted HRP-labeled goat anti-mouse kappa chain polyclonal antibody (Bethyl Laboratories) (for mouse 69-10) in ELISA buffer was added at 100 μl/well to detect bound antibodies. After incubation at room temperature for 30 min and washing with the wash buffer, 100 μl/well of ABTS substrate (Sigma Aldrich) was added to start color development and 100 μl/well of 2% oxalic acid was added to stop the color development. The absorbance was measured at 405 nm.

[4] = biological target: T1, IL-26; test: MTT assay of HUVECs stimulated with IL-26 (neutralizing activity of IL-26); assay type: cell-based; design: purchased R&D Systems; host or cells: added exogenously to HUVECs; conditions: antibody dose of 3 μg/mL
Procedure: as §1

[5] = biological target: T1, IL-26; test: ICAM-1 expression analysis of COLO205 (neutralizing activity of IL-26); assay type: cell-based; design: host or cells: added exogenously to COLO205 cells; conditions: for inhibition of IL-26-enhanced expression of ICAM-1: COLO205, recombinant human IL-26 monomer 20 ng/mL, 24 hours, flow cytometry (MFI); for inhibitory effect on IL-26 compared with m69-10 (ICAM-1 expression): COLO205, antibody doses of 2 μg/mL and 5 μg/mL
Procedure: COLO205 was seeded at 5×10^4 cells/well in a 96-well flat bottom plate, and stimulated with recombinant human IL-26 monomer (20 ng/mL) in the presence or absence of control human IgG or anti-human IL-26 antibody. After 24 hours of culture, the cells were collected and washed with ice-cold PBS (FCM buffer) containing 1% FBS and 0.1% sodium azide. Thereafter, a solution prepared by diluting a PE-labeled mouse anti-human ICAM-1 monoclonal antibody (clone 15.2, catalog number 50-0549-T100) of Bay bioscience (Kobe, Japan) or a PE-labeled mouse Igl,k isotype control monoclonal antibody (clone MOPC-21, catalogue number 400114) of BioLegend with FCM buffer to 5 μg/mL, was added at 50 μL/sample, and the mixture was allowed to stand at 4° C. for 25 minutes. Thereafter, the cells were washed with ice-cold FCM buffer, then measured with FACSCalibur, and the obtained data was analyzed with FlowJo.

[6] = biological target: T2, EphA3/IL-26 interaction; test: Immunofluorescence of rhIL-26-Alexa 488 and cell surface EphA3 on E0771 cells; assay type: cell-based, mouse; conditions: E0771, antibodies 10 μg/ml, FIGS. 19 and 20
Procedure: (§2) E0771 and HCC70 cells (1×10^5) were cultured for 24 hours in RPMI1640 medium with 10% FCS on Lab-Tek chamber slides (Thermo Fisher Scientific). The cultured cells were stimulated with Alexa Fluor 488 labeled IL-26 (30 ng/ml) in the presence or absence of recombinant human and mouse EphA3-Ig for 1 hour. HCC70 cells were stimulated with IL-26 (30 ng/ml) in the presence or absence of gefitinib (40 μM), a signal inhibitor, and a neutralizing antibody for 24 hours. Subcutaneous tumor samples obtained from mice were fixed in 4% paraformaldehyde (Thermo Fisher Scientific) and embedded in OCT compound (Tissue-Tek (registered trademark), Sakura Finetek, Japan). Cells and slides were immunostained with each antibody and observed using a Zeiss inverted microscope and Axiovision 2.0 program (Carl Zeiss, Germany). The fluorescence intensity was quantified with Image-J software (NIH). The images were captured using a 100×400× objective.

[7] = biological target: T3, interaction between IL-26 and EphA3; test: Immunofluorescence of rhIL-26-Alexa488 and cell surface EphA3 on HCC70 cells; assay type: cell-based; conditions: HCC70, rhIL-26-Alexa488 30 ng/ml, 50 μg/ml each, 1 hour, FIG. 21
Procedure: as §2

[8] = 200 μg per mouse i.p. twice a week from day 28, data not shown

Molecule | reversal of inhibitory effect of IL-26 on gefitinib-induced suppression of cell proliferation ([1]; HCC70, IL-26 30 ng/ml, gefitinib 40 μM, 48 hours, MTT, FIG. 59) | inhibitory effect on IL-26 compared with m69-10 (HCC70 proliferation) ([1]; antibody doses of 5 μg/mL and 20 μg/mL) | body weight loss [2, 8] | number of survival days [2, 8] | therapeutic effect compared with m69-10 ([2]; FIG. 60) | EC50 values (binding to human IL-26, ELISA) [3] [ng/mL] | binding to IL-26 (absorption value) ([3]; recombinant human IL-26 immobilized on a plate, FIG. 56) | inhibitory effect on IL-26 compared with m69-10 (HUVEC proliferation) [4] | inhibition of IL-26-enhanced expression of ICAM-1 [5] | inhibitory effect on IL-26 compared with m69-10 (ICAM-1 expression) [5] | blocking of inhibitory effect of IL-26 on suppression of cell proliferation by gefitinib ([1]; HCC70, IL-26 30 ng/ml, gefitinib 40 μM, 48 hours, Abs or rhEphA3-Ig 50 μg/ml each, MTT, FIG. 22) | inhibition of colocalization of IL-26 with EphA3 (EphA3/IL-26 interaction) [6] | inhibition of interaction between IL-26 and EphA3 [7]
Hu69-10A-IgG1: humanized 69-10 IgG1/kappa antibody expressed by pHu69-10A (Hu69-10VH1 and Hu69-10VL1) (antibody, V domains shown) VH: QVTLKESGPALVKPTQTLTLTCTFSGFSLSTSGMGVGWIRQPPGKALEWLAHIWWDDDKYYNPSLKSQLTISKDTSKNQVVLTMTNMDPVDTATYYCVRGGITATHYYAMDYWGQGTTVTVSS VL: DIQMTQSPSSLSASVGDRVTITCLASQTIGTWLSWYQQKPGKAPKLLIYAATSLADGVPSRFSGSGSGTKFTFTISSLQPEDIATYYCQQLYSSPWTFGGGTKVEIK | reversed the inhibitory effect of IL-26 on gefitinib-induced suppression of cell proliferation in an antibody dose-dependent manner | significantly higher inhibitory effect on IL-26 than the original mouse antibody m69-10 | clearly reduced | significantly prolonged | higher therapeutic effect than the original mouse antibody m69-10 | 304 | stronger binding to IL-26 than an original mouse antibody m69-10 | significantly higher inhibitory effect on IL-26 than the original mouse antibody m69-10 | partially inhibited | significantly higher inhibitory effect on IL-26 than the original mouse antibody m69-10 | – | – | –
Hu69-10B-IgG1: humanized 69-10 IgG1/kappa antibody expressed by pHu69-10B (Hu69-10VH1 and Hu69-10VL2) (antibody, V domains shown) VH: QVTLKESGPALVKPTQTLTLTCTFSGFSLSTSGMGVGWIRQPPGKALEWLAHIWWDDDKYYNPSLKSQLTISKDTSKNQVVLTMTNMDPVDTATYYCVRGGITATHYYAMDYWGQGTTVTVSS VL: DIQMTQSPSSLSASVGDRVTITCLASQTIGTWLSWYQQKPGKAPKLLIYAATSLADGVPSRFSGSGSGTDFTFTISSLQPEDIATYYCQQLYSSPWTFGGGTKVEIK | – | – | – | – | – | 396 | – | significantly higher inhibitory effect on IL-26 than the original mouse antibody m69-10 | partially inhibited | significantly higher inhibitory effect on IL-26 than the original mouse antibody m69-10 | – | – | –
rhEphA3-Ig: recombinant human EphA3 Fc chimeric protein purchased from R&D Systems (protein, left off: a dimerising Fc or GST, recombinant human EphA3 Fc chimeric protein purchased from R&D Systems) ELIPQPSNEVNLLDSKTIQGELGWISYPSHGWEEISGVDEHYTPIRTYQVCNVMDHSQNNWLRTNWVPRNSAQKIYVELKFTLRDCNSIPLVLGTCKETFNLYYMESDDDHGVKFREHQFTKIDTIAADESFTQMDLGDRILKLNTEIREVGPVNKKGFYLAFQDVGACVALVSVRVYFKKCPFTVKNLAMFPDTVPMDSQSLVEVRGSCVNNSKEEDPPRMYCSTEGEWLVPIGKCSCNAGYEERGFMCQACRPGFYKALDGNMKCAKCPPHSSTQEDGSMNCRCENNYFRADKDPPSMACTRPPSSPRNVISNINETSVILDWSWPLDTGGRKDVTFNIICKKCGWNIKQCEPCSPNVRFLPRQFGLTNTTVTVTDLLAHTNYTFEIDAVNGVSELSSPPRQFAAVSITTNQAAPSPVLTIKKDRTSRNSISLSWQEPEHPNGIILDYEVKYYEKQEQETSYTILRARGTNVTISSLKPDTIYVFQIRARTAAGYGTNSRKFEFETSPDSFSISGESSQ | – | – | – | – | – | – | – | – | – | – | potently blocked the inhibitory effect of IL-26 on suppression of cell proliferation by gefitinib | inhibited EphA3/IL-26 interaction | clearly inhibited the interaction between IL-26 and EphA3
